{"source": "paper PMC2646873", "about": "(Biochemistry, 2008)", "proteins": {"B1": {"name": "CysM (Rv1336) (enzyme)", "chain": "MTRYDSLLQALGNTPLVGLQRLSPRWDDGRDGPHVRLWAKLEDRNPTGSIKDRPAVRMIEQAEADGLLRPGATILEPTSGNTGISLAMAARLKGYRLICVMPENTSVERRQLLELYGAQIIFSAAEGGSNTAVATAKELAATNPSWVMLYQYGNPANTDSHYCGTGPELLADLPEITHFVAGLGTTGTLMGTGRFLREHVANVKIVAAEPRYGEGVYALRNMDEGFVPELYDPEILTARYSVGAVDAVRRTRELVHTEGIFAGISTGAVLHAALGVGAGALAAGERADIALVVADAGWKYLSTGAYAGSLDDAETALEGQLWA"}}, "target": "the molecule itself", "experiment": "crystal structure"}
{"protein": "B1", "values": [{"measurement": "stoichiometry N", "result": 2}]}
